Results on four molecules are retold here after patent publication US20080280827A1.

For data set [1], the target named is recombinant human LAP (R & D) (UniProt P01137).
In data set [2] the target is plasmin/plasma kallikrein. Nature of the data set: cell-based or functional assay.

Chain of recombinant human LAP (R & D) (P01137 whole entry, looked up): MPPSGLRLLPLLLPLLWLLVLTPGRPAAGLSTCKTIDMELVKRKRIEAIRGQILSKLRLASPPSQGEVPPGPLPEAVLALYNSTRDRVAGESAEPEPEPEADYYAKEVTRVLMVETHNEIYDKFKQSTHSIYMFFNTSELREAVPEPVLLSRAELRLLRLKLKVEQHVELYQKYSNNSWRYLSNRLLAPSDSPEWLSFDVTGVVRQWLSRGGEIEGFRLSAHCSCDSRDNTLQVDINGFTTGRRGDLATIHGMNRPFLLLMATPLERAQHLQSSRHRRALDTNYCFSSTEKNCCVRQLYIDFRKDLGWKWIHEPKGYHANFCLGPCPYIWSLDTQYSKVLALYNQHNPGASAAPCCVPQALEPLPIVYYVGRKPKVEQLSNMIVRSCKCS

Consider plasma kallikrein (SIGMA), for which the “LAP cleavage reaction (western blot: LAP 41 kDa, LAP degradation product 38 kDa)” value in data set [1] was “attenuation of LAP band found in panel A, and generation of LAP degradation product found in panel B”.

B1: QPQ peptide (peptide)
peptide: QILSQQQQASP
On to B1, for which the inhibition of generation of active TGF-β in conditioned medium of rat hepatic stellate cells (ELISA, peptide 0.5 mM) in data set [2] was 90%.

B2: T200 peptide (Thr-Gly-Val-Val-Arg-Gln-Trp-Leu-Ser-Arg-Gly) (peptide)
peptide: TGVVRQWLSRG
Regarding B2, the amount of active TGF-β generated into the conditioned medium, relative to control in data set [2] was 74 % of control.

B3: QP peptide (Gln-Ile-Leu-Ser-Lys-Leu-Arg-Leu-Ala-Ser-Pro) (peptide)
peptide: QILSKLRLASP
As to B3, the inhibition of generation of active TGF-β in conditioned medium of rat hepatic stellate cells (ELISA, peptide 0.5 mM) in data set [2] came out at 55%.
